From patent US20210371537A1 (MERRIMACK PHARMACEUTICALS, published 2021)
Substitutions are numbered along the chain they refer to.

T1: human TNFR2 on GloResponse NF-kB-RE-luc2p HEK293 reporter cells (human, UniProt P20333 23-461)
T1 sequence: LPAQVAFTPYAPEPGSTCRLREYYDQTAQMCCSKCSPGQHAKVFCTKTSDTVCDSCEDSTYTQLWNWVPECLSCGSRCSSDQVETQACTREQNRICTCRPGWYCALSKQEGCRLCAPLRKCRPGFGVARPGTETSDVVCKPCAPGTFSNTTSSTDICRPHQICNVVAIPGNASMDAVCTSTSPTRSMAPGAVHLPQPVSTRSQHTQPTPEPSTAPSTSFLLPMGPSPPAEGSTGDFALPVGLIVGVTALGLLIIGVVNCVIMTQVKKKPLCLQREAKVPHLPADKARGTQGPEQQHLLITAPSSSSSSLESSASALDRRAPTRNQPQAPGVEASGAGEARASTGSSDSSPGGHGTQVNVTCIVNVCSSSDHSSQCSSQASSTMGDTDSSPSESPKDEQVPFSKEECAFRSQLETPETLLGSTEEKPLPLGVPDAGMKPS

T2: human TNFR2-His (human, UniProt P20333 23-257)
T2 construct: not shown: His tag
T2 sequence: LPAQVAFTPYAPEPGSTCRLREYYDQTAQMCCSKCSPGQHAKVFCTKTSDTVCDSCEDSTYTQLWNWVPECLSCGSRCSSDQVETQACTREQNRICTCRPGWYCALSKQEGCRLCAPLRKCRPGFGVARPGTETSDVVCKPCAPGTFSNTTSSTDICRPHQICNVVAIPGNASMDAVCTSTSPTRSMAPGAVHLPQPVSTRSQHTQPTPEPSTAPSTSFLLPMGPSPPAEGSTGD

B1: ABV2.7 (antibody, human IgG1, kappa, V domains shown)
VH: QVQLVQSGSELKKPGASVKVSCKASGYTFTTFGMSWVRQAPGQGLEWMGWINTYSGVPTYAQGFTGRFVFSLDTSVSTAYLQISSLKAEDTAVYFCARRSNFAYWGQGTLVTVSS
VL: DIVLTQSPDSLAVSLGERATINCRASESLTASGNSFMHWYQQKPGQPPKLLIYRASNLESGVPDRFSGSGSRTDFTLTISSLQAEDVAVYYCQQSRHVNWTFGGGTKVEIKR
B2: ABV2.13 (antibody, human IgG1, kappa, V domains shown)
VH: B1 VH with T59H
VL: DIVLTQSPDSLAVSLGERATINCRASQTVDSSGNSFMHWYQQKPGQPPKLLIYLGNRLESGVPDRFSGSGSRTDFTLTISSLQAEDVAVYYCQQSNEDPWTFGGGTKVEIKR
B3: ABV2.1 (ABV2 hum #2 HD3) (antibody, V domains shown)
VH: B1 VH
VL: DIVLTQSPDSLAVSLGERATINCRASESVDSSGNSFMHWYQQKPGQPPKLLIYRASNLESGVPDRFSGSGSRTDFTLTISSLQAEDVAVYYCQQSNEDPWTFGGGTKVEIK
notes: humanized ABV2; also called parental antibody
B4: ABV2.15 (antibody, human IgG1, kappa, V domains shown)
VH: B1 VH with T59H
VL: B1 VL
B5: ABV2 chimera (ABV2c) (antibody, human IgG1, kappa, V domains shown)
VH: QIQLVQSGPELKKPGETVKISCKASGYTFTTFGMSWVKQAPGKGLKWMGWINTYSGVPTYADDFKGRFAFSLETSASTAYLQINNLKNEDTATYFCARRSNFAYWGQGTLVTVSA
VL: DIVLTQSPASLAVSLGQRATISCRASESVDSSGNSFMHWYQQKAGQSFKLLIYRASNLESGIPARFSGSGSRTDFTLTINPVEADDVATYYCQQSNEDPWTFGGGTKLEIKR
notes: VH and VL of mouse ABV2 fused with human IgG1 and human kappa constant regions; also called ABVc; chimeric anti-human TNFR2 antibody

Each molecule was assayed against T1, human TNFR2 on GloResponse … (assay: cell-based or functional assay).

EC50 in stimulating NF-kB activity [µg/mL] | EC50 of induced NF-kB activity [µg/mL] | Molecule
10.8 |  | B1
4.1 |  | B2
 | 1.6 | B3
9.3 | 5.3 | B4
8.6 |  | B5

What follows are molecules tested against his-tagged mouse TNFR2 (mouse) (UniProt P25119) (assay: blocking ELISA: His-tagged mouse TNFR2 coated, antibody titrated, then recombinant mouse TNF-alpha added and detected; OD450 normalized).
his-tagged mouse TNFR2 (mouse), sequence (P25119 23-258 limits assumed): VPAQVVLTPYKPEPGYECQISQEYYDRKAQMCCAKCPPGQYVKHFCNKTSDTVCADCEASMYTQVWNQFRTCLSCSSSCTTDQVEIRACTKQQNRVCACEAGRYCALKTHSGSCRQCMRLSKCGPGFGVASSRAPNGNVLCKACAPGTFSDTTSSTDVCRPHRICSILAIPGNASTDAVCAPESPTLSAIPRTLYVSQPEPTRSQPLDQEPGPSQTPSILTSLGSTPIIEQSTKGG

IC50 (read off the curve) [nM] | Molecule
2 | 54.7 (Bioxcell) (antibody)

These molecules were tested against T2, human TNFR2-His (assay: BLI, antibody on anti-Human Fc Capture (AHC) biosensors, human TNFR2-His in solution).
Method: Binding affinities for human TNFR2 of the affinity-matured anti-human TNFR2 antibodies generated in Example 30 were measured by bio-layer interferometry (BLI). Briefly, a BLI kinetic assay was performed using anti-Human Fc Capture (AHC) biosensors (ForteBio) under the following conditions: (a) loading of antibody (4 μg/mL) for 60 sec, (b) baseline for 60 sec, (d) association with human TNFR2-His ([…]) for 300 sec, and (e) dissociation for 300 sec.

Kd [nM] | Molecule
0.3 | B1
1.59 | B2
4.42 | B3
0.158 | B4
0.689 | B5
